The source of these data is PMC10169808, “Two legume fatty acid amide hydrolase isoforms with distinct preferences for microbial- and plant-derived acylamides” (Scientific Reports, 2023).

Data set [1] has as its target Medicago truncatula fatty acid amide hydrolase 1 (MtFAAH1) (Medicago truncatula). As to the kind of experiment: SEC; Superdex 200 Increase 10/300 GL; 50 mM Bis-Tris-Propane pH 9.0, 100 mM NaCl, 0.03% DDM; mass interpolated from Kav against standards, mean elution volume of six purifications, DDM micelle (about 70 kDa) taken into account.
Data set [2] addresses Medicago truncatula fatty acid amide hydrolase 2a (MtFAAH2a) (Medicago truncatula). In words: SEC; Superdex 200 Increase 10/300 GL; buffers at pH 7.5, 0.06% DDM; mass interpolated from Kav against standards, mean elution volume of six purifications, DDM micelle (about 70 kDa) taken into account.
Data set [3] deals with the molecule itself. In words: SEC; AtFAAH run as reference for the MtFAAH calculations, in solution with detergent; its conditions are not told in the text (Supplementary Fig. S13).
Substrate in data set [4]: CCCCC/C=C\C/C=C\CCCCCCCC(=O)NCCO
As to the kind of experiment: fluorescamine assay of released amine, Michaelis-Menten fit. It is filed as biochemical, Medicago truncatula. The settings on record: 100 mM NaCl, 30 °C, apparent.

Substrate in data set [5]: CCCCCCCCCC(=O)CC(=O)N[C@H]1CCOC1=O
Described as above. The format is biochemical, Medicago truncatula. The settings on record: 100 mM NaCl, 30 °C, apparent.

Substrate in data set [6]: O=C(/C=C/c1ccc(O)cc1)NCCc1ccc(O)cc1
The data set is described as above. The format is biochemical, Medicago truncatula. The settings on record: 100 mM NaCl, 30 °C, apparent.

Substrate in data set [7]: CCCCCCCCCCCC(=O)CC(=O)N[C@H]1CCOC1=O
The description is as above. The format is biochemical, Medicago truncatula. The conditions noted are these: 100 mM NaCl, 30 °C, apparent.

Substrate in data set [8]: CCCCCCCCCCCC(=O)NCCO
The data set is described as above. The format is biochemical, Medicago truncatula. The settings on record: 100 mM NaCl, 30 °C, apparent.

Substrate in data set [9]: C/C=C/C=C\CC/C=C/C(=O)NCC(C)C
The data set is described as above. The format is biochemical, Medicago truncatula. The settings on record: 100 mM NaCl, 30 °C, apparent.

Substrate in data set [10]: O=C(/C=C/c1ccc(O)cc1)N[C@H]1CCOC1=O
The data set is described as above. It is filed as biochemical, Medicago truncatula. The conditions noted are these: 100 mM NaCl, 30 °C, apparent.

Substrate in data set [11]: CCCCC/C=C\C=C\C(O)CCCCCCCC(=O)NCCO
The description is as above. The settings on record: 100 mM NaCl, 30 °C, apparent. It is filed as biochemical, Medicago truncatula.

In turn, “Medicago truncatula fatty acid amide hydrolase 1 (MtFAAH1) (enzyme)” showed a stoichiometry N in data set [1] of 4.
In the case of “Medicago truncatula fatty acid amide hydrolase 2a (MtFAAH2a) (enzyme)”, the stoichiometry N in data set [2] was 4.

B1: Arabidopsis thaliana fatty acid amide hydrolase (AtFAAH) (enzyme)
chain: MGKYQVMKRASEVDLSTVKYKAETMKAPHLTGLSFKLFVNLLEAPLIGSLIVDYLKKDNGMTKIFRNTVIPEEPMFRPEFPSQEPEHDVVIVGEDESPIDRLETALKCLPQYDPSRSLHADPVSSFRYWKIRDYAYAYRSKLTTPLQVAKRIISIIEEFGYDKPPTPFLIRFDANEVIKQAEASTRRFEQGNPISVLDGIFVTIKDDIDCLPHPTNGGTTWLHEDRSVEKDSAVVSKLRSCGAILLGKANMHELGMGTTGNNSNYGTTRNPHDPKRYTGGSSSGSAAIVAAGLCSAALGTDGGGSVRIPSALCGITGLKTTYGRTDMTGSLCEGGTVEIIGPLASSLEDAFLVYAAILGSSSADRYNLKPSPPCFPKLLSHNGSNAIGSLRLGKYTKWFNDVSSSDISDKCEDILKLLSNNHGCKVVEIVVPELEEMRAAHVISIGSPTLSSLTPYCEAGKNSKLSYDTRTSFAIFRSFSASDYIAAQCLRRRLMEYHLNIFKDVDVIVTPTTGMTAPVIPPDALKNGETNIQVTTDLMRFVLAANLLGFPAISVPVGYDKEGLPIGLQIMGRPWAEATVLGLAAAVEELAPVTKKPAIFYDILNTN
notes: AtFAAH, fatty acid amide hydrolase (a FAAH1 enzyme), Arabidopsis thaliana; also called A. thaliana FAAH; AtFAAH1; source: recombinant, purified
In the case of B1, the “stoichiometry N” value in data set [3] is 2.

B2: MtFAAH2a (Medicago truncatula) (protein)
chain: MGLFKSKRVVYKPVKDVNLGPDSTEFYLQANVKAPRMTGILVKIVAWLLECRIIGAFLLYILKGNNLIHKYITNADIEEPPLYVPLHHFEDHKEQEVKSLDLALTPPDKVQVAIDCLPTTLQRPINGTKPSFNRWTIMDYFRAYSSGDITPHMVAERFIAAVDESSKPTLQMGFFINYNVEDILRQANESTLRYQKGEPISVLDGVPVAIKDEIDCLPYPTTGGTKWLHKQRPCTDDACCIKRLRLCGAVLVGKTNMHELGAGTSGINPHYGATRNPHNASRIAGGSSSGSAAVVSAGLCPVALGVDGGGSVRMPAALCGIVGLKPTFSRIPHSGVIPLNWTVGMVGILAGTVEDSLITYAAISGEIPSRQPSSIPAKINLPLLPLTKSISKIKLAKYGKWFDDCSDDVRICCSGALNKLQGHYGWKIVDVTIPEIEVMRLAHYSTIGSECNTSLDYFQDKNLADFGWDARVALKIYGSFSSMEYIKAQKIRNRQLQFHKKIFSEADIIVSPTTGVTAYPIQDDALKTGELDYVNGAALIRYSIAGNFLGLPAVTVPVGYDKLGLPIGLQFIGRPWAEATLIHLAFAMQTICLSEYRKPAIFYDLLRTN
notes: full-length synthesized CDS (GENEWIZ) subcloned in pTrcHIS2, C-terminal c-myc and 6xHis tags, E. coli; estimated homotetramer in DDM; catalytic Ser311
In the case of B2, the Km in data set [4] (pH 7.5, 25 mM HEPES, 0.06% DDM) is on record as 15.1 ± 2.9 µM; in data set [5] (pH 7.5, 25 mM HEPES, 0.06% DDM) it was 13.2 ± 2.1 µM; in [6] (pH 7.5, 25 mM HEPES, 0.06% DDM), 10.8 ± 1.1 µM; in [7] (pH 7.5, 25 mM HEPES, 0.06% DDM), 14.6 ± 1.7 µM; in data set [8] (pH 7.5, 25 mM HEPES, 0.06% DDM), 13.8 ± 1.7 µM; in data set [9] (pH 7.5, 25 mM HEPES, 0.06% DDM) it was 7.64 ± 1.5 µM. Besides, the Km in [10] (pH 7.5, 25 mM HEPES, 0.06% DDM) is listed as 13.8 ± 1.9 µM; in data set [11] (pH 7.5, 25 mM HEPES, 0.06% DDM), 18.7 ± 2.9 µM. In addition, the kcat in [4] (pH 7.5, 25 mM HEPES, 0.06% DDM) was 0.60 s⁻¹; in data set [5] (pH 7.5, 25 mM HEPES, 0.06% DDM), 1.11 s⁻¹; in [6] (pH 7.5, 25 mM HEPES, 0.06% DDM) it was 1.51 s⁻¹; in [7] (pH 7.5, 25 mM HEPES, 0.06% DDM), 0.96 s⁻¹; in [8] (pH 7.5, 25 mM HEPES, 0.06% DDM), 1.26 s⁻¹; in [9] (pH 7.5, 25 mM HEPES, 0.06% DDM), 1.28 s⁻¹. The kcat was 1.64 s⁻¹ in data set [10] (pH 7.5, 25 mM HEPES, 0.06% DDM) and 0.35 s⁻¹ in [11] (pH 7.5, 25 mM HEPES, 0.06% DDM).

B3: MtFAAH1 (Medicago truncatula) (protein)
chain: MGKKRVMVPAKDVDLSSIKYEPEIVQAPHLTGFWFRFFVRLIEAPLIGPFLLTMLKKENKIDQLLRNTVFPEEPMFKPEYPPQEKEHSVVELDEDGRPEGRVESALNCLPHYDPAKLWENSSATFRYWKIRDYAYAYQSRKVTPSMVAESIISMIEENGIDKPPTPLLLSFDAAEVRKQAAASTQRFESGNPLSILDGIFIAIKDDIDCHPHPSTGGSTWMHEVRDVKKDAVCVSRLRSCGVIFIGKTNMHEFGMGTTGNNSNYGTARNPHAPDRYTGGSSSGPAAIVASGLCSAALGTDGGGSVRIPSSLCGVVGLKINYGRTSMEGSLCDSGTVEVIGPIASTVEDAMLVYAAMLGASPANRISMKPSTPCLPTLSSDDDTDALRSLRIGIYTPWFNNVHSTEVSDKCEDALNLLSKAHGCEVVEVVIPEIVEMRTAHLVSIGSECLSSLNPDIEDGKGVKLSYDTRTSLALFQSFTAADYVAAQCIRRRIMHYFMEIFKKVDVIVTPTTGMTAPRIPPSALKSGETDMPTTGYLMRFVVPANLLGLPAISVPVGYDKEGLPIGLQVIGRPWAEATILRVAAAVEKLCGESKRRPVTYYDVLGAN
notes: full-length CDS from A17 stem cDNA; C-terminal c-myc and 6xHis tags (pTrcHIS2), E. coli BL21(DE3); estimated homotetramer in DDM; catalytic Ser304
Regarding B3, the Km is on record as 4.83 ± 0.6 µM in data set [4] (pH 9, 25 mM HEPES, 0.03% DDM); 5.33 ± 0.6 µM in data set [5] (pH 9, 25 mM HEPES, 0.03% DDM); 25.9 ± 7.0 µM in data set [6] (pH 9, 25 mM HEPES, 0.03% DDM); 5.60 ± 0.6 µM in data set [7] (pH 9, 25 mM HEPES, 0.03% DDM); 13.9 ± 3.6 µM in data set [8] (pH 9, 25 mM HEPES, 0.03% DDM); 6.81 ± 2.6 µM in data set [9] (pH 9, 25 mM HEPES, 0.03% DDM). In addition, the Km in data set [10] (pH 9, 25 mM HEPES, 0.03% DDM) stood at 10.2 ± 2.5 µM; in [11] (pH 9, 25 mM HEPES, 0.03% DDM), 5.00 ± 0.4 µM. Moreover, the kcat in data set [4] (pH 9, 25 mM HEPES, 0.03% DDM) was 1.05 s⁻¹; in data set [5] (pH 9, 25 mM HEPES, 0.03% DDM), 0.87 s⁻¹; in data set [6] (pH 9, 25 mM HEPES, 0.03% DDM), 0.51 s⁻¹; in [7] (pH 9, 25 mM HEPES, 0.03% DDM) it was 0.79 s⁻¹; in [8] (pH 9, 25 mM HEPES, 0.03% DDM), 0.86 s⁻¹; in data set [9] (pH 9, 25 mM HEPES, 0.03% DDM), 0.32 s⁻¹. For the same molecule, the kcat in data set [10] (pH 9, 25 mM HEPES, 0.03% DDM) worked out at 0.33 s⁻¹; in data set [11] (pH 9, 25 mM HEPES, 0.03% DDM), 1.25 s⁻¹.

The stoichiometry N is a count of units in the complex or per binding partner. A word on the Km: it is the concentration of substrate that gives half-maximal velocity. By kcat is commonly meant the number of substrate molecules converted per active site and unit of time at saturation.
